In PMC6910952 (Nature Communications, 2019):
Positions count from the first letter of the chain named. Where “and” joins values, the source holds several entries; their conditions need not be identical. Identical values can stand only once. No end group written: not given here.

Tests used:
Assay in all cases: fluorescence polarisation; fluorescence anisotropy; 1 nM FlAsH-labeled His6-SUMO-yUfd1 peptide, His6-yNpl4^113–580 in two-fold dilution series; 25 °C; 50 mM Tris-HCl pH 8.0, 100 mM NaCl, 5 mM β-mercaptoethanol, 0.1 g/L BSA
Conditions in all cases: both partners purified
[1] = target: T1, His6-yNpl4^113–580 (Saccharomyces cerevisiae, UniProt P33755 113-580)
T1 construct: codon-optimized synthetic cDNA; also called WT; WT #1; source: E. coli Rosetta (DE3), purified (Ni-NTA, Resource Q); also in lysate, mixed with cells expressing GST-yUfd1 for co-purification; not shown: His6, N-terminal, kept
T1 sequence (looked up): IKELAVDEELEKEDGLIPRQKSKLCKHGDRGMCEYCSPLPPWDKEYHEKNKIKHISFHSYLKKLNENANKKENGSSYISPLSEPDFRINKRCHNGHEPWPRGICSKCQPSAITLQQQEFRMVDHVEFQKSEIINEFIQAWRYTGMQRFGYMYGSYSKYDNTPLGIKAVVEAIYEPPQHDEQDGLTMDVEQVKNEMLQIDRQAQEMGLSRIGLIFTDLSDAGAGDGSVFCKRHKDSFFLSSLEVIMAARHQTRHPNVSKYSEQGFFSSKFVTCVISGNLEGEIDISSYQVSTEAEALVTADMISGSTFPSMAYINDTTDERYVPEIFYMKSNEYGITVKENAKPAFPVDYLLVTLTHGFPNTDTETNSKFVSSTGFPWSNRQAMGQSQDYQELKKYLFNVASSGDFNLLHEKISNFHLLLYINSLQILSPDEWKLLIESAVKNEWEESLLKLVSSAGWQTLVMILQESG

[2] = target: T2, His6-yNpl4^113–580 F326A (Saccharomyces cerevisiae, UniProt P33755 113-580, F326A)
T2 construct: also called yNpl4 F326A; source: E. coli Rosetta (DE3), purified (Ni-NTA, Resource Q); not shown: His6, N-terminal, kept
T2 sequence (looked up): T1 sequence (looked up) with F214A

[3] = target: T3, His6-yNpl4^113–580 F419A (Saccharomyces cerevisiae, UniProt P33755 113-580, F419A)
T3 construct: also called yNpl4 F419A; source: E. coli Rosetta (DE3), purified (Ni-NTA, Resource Q); not shown: His6, N-terminal, kept
T3 sequence (looked up): T1 sequence (looked up) with F307A

[4] = target: T4, His6-yNpl4^113–580 Y424A (Saccharomyces cerevisiae, UniProt P33755 113-580, Y424A)
T4 construct: also called yNpl4 Y424A; source: E. coli Rosetta (DE3), purified (Ni-NTA, Resource Q); not shown: His6, N-terminal, kept
T4 sequence (looked up): T1 sequence (looked up) with Y312A

B1: FlAsH-labeled His6-SUMO-yUfd1^288–305-GWCCPGCC (peptide, UniProt P53044 288-305, looked up)
chain: {His6-SUMO}-EPAKLDLPEGQLFFGFPMGWCCPGCC
modifications: cysteine pairing not given here; also: FlAsH label bound to CCPGCC motif
notes: the assay methods print 280-305; also called yUfd1-FlAsH; yUfd1 WT; source: E. coli Rosetta (DE3) (pCold-SUMO), purified (Ni-NTA, Resource Q), labeled with FlAsH-EDT2; not shown: His6, N-terminal, kept; SUMO, N-terminal, kept
[1]
  Kd: 85.7 nM and 99.4 nM
[2]
  Kd: 257 nM
[3]
  Kd: 158 nM
[4]
  Kd: 8450 nM
